Measured values from publication PMC548358.
Residue numbers refer to the chain shown, from its start.

B1: *A:GO (dsDNA)
DNA 1: AGCGGCCATCGATACCGTCAACCTCGAGGAATTCC
DNA 2: GGAATTCCTCGAGGTGGACGGTATCGATGGCCGCT
modifications: 8-oxoguanine at strand 2 position 16, opposite A20 of strand 1
B2: *A:G (dsDNA)
DNA 1: B1 DNA 1
DNA 2: B1 DNA 2
B3: *AO:T (dsDNA)
DNA 1: B1 DNA 1
DNA 2: B1 DNA 2 with G16T
modifications: 2-hydroxyadenine at strand 1 position 20, opposite T16 of strand 2
B4: *AO:GO (dsDNA)
DNA 1: B1 DNA 1
DNA 2: B1 DNA 2
modifications: 2-hydroxyadenine at strand 1 position 20; 8-oxoguanine at strand 2 position 16
B5: *AO:G (dsDNA)
DNA 1: B1 DNA 1
DNA 2: B1 DNA 2
modifications: 2-hydroxyadenine at strand 1 position 20, opposite G16 of strand 2

Experiments:
Trx-mMUTYH(D207N) = target: T1, Trx-mMUTYH(D207N) (Mus musculus, UniProt Q99P21 1-515, D207N); experiment: EMSA
T1 sequence: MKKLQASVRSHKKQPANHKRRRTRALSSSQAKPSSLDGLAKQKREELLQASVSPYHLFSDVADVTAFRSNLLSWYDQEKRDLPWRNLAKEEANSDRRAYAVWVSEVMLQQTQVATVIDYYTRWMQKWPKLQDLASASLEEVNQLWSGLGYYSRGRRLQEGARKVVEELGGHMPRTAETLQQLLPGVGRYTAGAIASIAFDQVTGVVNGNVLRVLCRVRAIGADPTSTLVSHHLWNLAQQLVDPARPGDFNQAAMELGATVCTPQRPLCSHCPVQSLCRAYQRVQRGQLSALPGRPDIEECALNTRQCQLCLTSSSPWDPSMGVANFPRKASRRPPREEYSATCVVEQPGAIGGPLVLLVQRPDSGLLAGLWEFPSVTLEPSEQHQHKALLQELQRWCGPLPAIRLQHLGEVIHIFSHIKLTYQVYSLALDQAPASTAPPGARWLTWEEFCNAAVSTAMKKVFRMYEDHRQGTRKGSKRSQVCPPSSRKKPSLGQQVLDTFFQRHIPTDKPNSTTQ

Trx-mMUTYH wild type = target: T2, Trx-mMUTYH wild type (Mus musculus, UniProt Q99P21 1-515); experiment: EMSA
T2 sequence: T1 sequence with N207D

Binder	binding result (Trx-mMUTYH(D207N))	binding result (Trx-mMUTYH wild type)
B1	binds	binds
B2	no binding	no binding
B3	no binding	no binding
B4		binds
B5	no binding	no binding
